Data on 90 variants can be found in IntAct's records for PubMed 29039417.

First the molecules themselves.
B1: BBSome complex member BBS1 (Homo sapiens), Q8NFJ9 (parent)
chain: MAAASSSDSDACGAESNEANSKWLDAHYDPMANIHTFSACLALADLHGDGEYKLVVGDLGPGGQQPRLKVLKGPLVMTESPLPALPAAAATFLMEQHEPRTPALALASGPCVYVYKNLRPYFKFSLPQLPPNPLEQDLWNQAKEDRIDPLTLKEMLESIRETAEEPLSIQSLRFLQLELSEMEAFVNQHKSNSIKRQTVITTMTTLKKNLADEDAVSCLVLGTENKELLVLDPEAFTILAKMSLPSVPVFLEVSGQFDVEFRLAAACRNGNIYILRRDSKHPKYCIELSAQPVGLIRVHKVLVVGSTQDSLHGFTHKGKKLWTVQMPAAILTMNLLEQHSRGLQAVMAGLANGEVRIYRDKALLNVIHTPDAVTSLCFGRYGREDNTLIMTTRGGGLIIKILKRTAVFVEGGSEVGPPPAQAMKLNVPRKTRLYVDQTLREREAGTAMHRAFQTDLYLLRLRAARAYLQALESSLSPLSTTAREPLKLHAVVQGLGPTFKLTLHLQNTSTTRPVLGLLVCFLYNEALYSLPRAFFKVPLLVPGLNYPLETFVESLSNKGISDIIKVLVLREGQSAPLLSAHVNMPGSEGLAAA
partner: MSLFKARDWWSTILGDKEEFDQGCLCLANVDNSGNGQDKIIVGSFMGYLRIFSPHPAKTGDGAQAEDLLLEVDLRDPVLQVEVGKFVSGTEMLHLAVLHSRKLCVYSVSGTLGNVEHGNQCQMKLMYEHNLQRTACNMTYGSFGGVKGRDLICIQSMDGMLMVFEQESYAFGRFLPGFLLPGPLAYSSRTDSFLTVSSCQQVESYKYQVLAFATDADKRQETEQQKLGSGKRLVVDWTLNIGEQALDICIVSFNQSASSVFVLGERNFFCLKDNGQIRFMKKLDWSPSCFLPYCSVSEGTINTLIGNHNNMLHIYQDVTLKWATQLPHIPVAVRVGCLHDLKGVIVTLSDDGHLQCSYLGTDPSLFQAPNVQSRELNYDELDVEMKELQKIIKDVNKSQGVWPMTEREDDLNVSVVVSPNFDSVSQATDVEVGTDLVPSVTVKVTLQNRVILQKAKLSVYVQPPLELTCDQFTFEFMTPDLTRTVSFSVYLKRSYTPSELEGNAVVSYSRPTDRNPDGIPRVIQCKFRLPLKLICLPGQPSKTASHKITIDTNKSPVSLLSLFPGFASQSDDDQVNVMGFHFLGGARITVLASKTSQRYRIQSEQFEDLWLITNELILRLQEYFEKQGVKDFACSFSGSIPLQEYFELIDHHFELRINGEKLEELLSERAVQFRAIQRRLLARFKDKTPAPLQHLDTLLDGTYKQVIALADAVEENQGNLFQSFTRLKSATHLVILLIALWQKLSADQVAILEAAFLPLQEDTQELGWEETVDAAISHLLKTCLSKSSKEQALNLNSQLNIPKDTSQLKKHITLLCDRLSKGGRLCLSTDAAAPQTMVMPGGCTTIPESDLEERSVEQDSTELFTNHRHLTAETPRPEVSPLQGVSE

This test covers variants of B1. The following applies: with pthb1_human BBS9, Q3SYG4.
With R450A, the “effect of a mutation on the interaction” value is “with no effect”.
For the variant M448E, the “effect of a mutation on the interaction” value was “with no effect”.
For M448K, the “effect of a mutation on the interaction” value is recorded as “with no effect”.
With M448A, the “effect of a mutation on the interaction” value is given as “with no effect”.
In the case of A420E, the “effect of a mutation on the interaction” value is reported as “with no effect”.
The result for A420K reads “with no effect”; that for G416K, “with no effect”; that for G416A, “with no effect”.
G416E: the “effect of a mutation on the interaction” value is reported as “with no effect”.
As to A451E, the “effect of a mutation on the interaction” value is given as “with no effect”.
The result for A451K reads “with no effect”; that for L439K, “with no effect”; that for L439E, “with no effect”.
As for L439A, the “effect of a mutation on the interaction” value is given as “with no effect”.
The result for R440A reads “with no effect”; that for R440K, “with no effect”; that for R440E, “with no effect”.
Regarding R442K, the “effect of a mutation on the interaction” value is listed as “with no effect”.
The result for R442E reads “with no effect”.
The result for R442A reads “with no effect”; that for P418K, “with no effect”; that for P418A, “with no effect”.
Next, P418E: “with no effect”; V415A: “with no effect”; V415E: “with no effect”.
Consider V415K, for which the “effect of a mutation on the interaction” value was “with no effect”.
In the case of N426K, the “effect of a mutation on the interaction” value was “with no effect”.
Take N426E: the “effect of a mutation on the interaction” value is listed as “with no effect”.
Next, N426A: “with no effect”; G445K: “with no effect”.
In the case of G445A, the “effect of a mutation on the interaction” value was “with no effect”.
The result for G445E reads “with no effect”; that for V427E, “with no effect”; that for V427A, “with no effect”.
V427K: the “effect of a mutation on the interaction” value is listed as “with no effect”.
For the variant Q421K, the “effect of a mutation on the interaction” value was “with no effect”.
As to Q421E, the “effect of a mutation on the interaction” value is reported as “with no effect”.
Take Q421A: the “effect of a mutation on the interaction” value is “with no effect”.
The result for S413E reads “with no effect”; that for S413K, “with no effect”; that for S413A, “with no effect”.
The result for H449K reads “with no effect”.
With H449E, the “effect of a mutation on the interaction” value is recorded as “with no effect”.
With H449A, the “effect of a mutation on the interaction” value was “with no effect”.
Regarding L433A, the “effect of a mutation on the interaction” value was “with no effect”.
On to L433K, for which the “effect of a mutation on the interaction” value is on record as “with no effect”.
Turning to L433E, the “effect of a mutation on the interaction” value was “with no effect”.
Next, V435A: “with no effect”; V435K: “with no effect”.
On to V435E, for which the “effect of a mutation on the interaction” value is on record as “with no effect”.
Consider V435L, for which the “effect of a mutation on the interaction” value is listed as “disrupting interaction strength”.
On to T431E, for which the “effect of a mutation on the interaction” value is listed as “with no effect”.
The result for T431K reads “with no effect”.
On to T431A, for which the “effect of a mutation on the interaction” value was “with no effect”.
On to K430A, for which the “effect of a mutation on the interaction” value is “with no effect”.
K430M: the “effect of a mutation on the interaction” value is “disrupting interaction strength”.
Take K430E: the “effect of a mutation on the interaction” value is “with no effect”.
As to T446A, the “effect of a mutation on the interaction” value is given as “with no effect”.
Next, T446E: “with no effect”; T446K: “with no effect”.
As to R432A, the “effect of a mutation on the interaction” value is listed as “with no effect”.
Turning to R432L, the “effect of a mutation on the interaction” value is listed as “disrupting interaction strength”.
On to R432E, for which the “effect of a mutation on the interaction” value is on record as “with no effect”.
R432K: the “effect of a mutation on the interaction” value is given as “with no effect”.
The result for P419E reads “with no effect”; that for P419A, “with no effect”.
Turning to P419K, the “effect of a mutation on the interaction” value is “with no effect”.
As for R429E, the “effect of a mutation on the interaction” value is given as “with no effect”.
Next, R429K: “with no effect”; R429A: “with no effect”; A444E: “with no effect”.
With A444K, the “effect of a mutation on the interaction” value is “with no effect”.
Regarding T438A, the “effect of a mutation on the interaction” value is “with no effect”.
Next, T438K: “with no effect”; T438E: “with no effect”; Y434A: “with no effect”.
On to Y434E, for which the “effect of a mutation on the interaction” value is “with no effect”.
Y434K: the “effect of a mutation on the interaction” value is given as “with no effect”.
Q437A: the “effect of a mutation on the interaction” value is listed as “with no effect”.
Next, Q437K: “with no effect”; Q437E: “with no effect”.
In the case of D436A, the “effect of a mutation on the interaction” value is given as “disrupting interaction strength”.
Turning to D436K, the “effect of a mutation on the interaction” value is on record as “with no effect”.
Turning to D436E, the “effect of a mutation on the interaction” value was “with no effect”.
Consider E414K, for which the “effect of a mutation on the interaction” value is recorded as “with no effect”.
Regarding E414A, the “effect of a mutation on the interaction” value is given as “with no effect”.
Consider F452A, for which the “effect of a mutation on the interaction” value is recorded as “with no effect”.
Regarding F452C, the “effect of a mutation on the interaction” value is “disrupting interaction strength”.
Turning to A422E, the “effect of a mutation on the interaction” value was “with no effect”.
Consider A422K, for which the “effect of a mutation on the interaction” value was “with no effect”.
